Laboratory results: publication PMC5379070

How the values were obtained:
Assay in all cases: native gel or EMSA; blue-native PAGE of the trimer-size SEC fractions (Superdex 200 Increase, TBS) after antibody affinity purification
[1] = molecular target: SIV trimer SIVcpzMT145 SOSIP.664 (simian immunodeficiency virus SIVcpzMT145)
[2] = molecular target: CRF02_AG_250 SOSIP.664 trimer (HIV-1 isolate CRF02_AG_250 (subtype AG))
[3] = molecular target: 327c SOSIP.664 trimer (HIV-1 isolate 327c (subtype C))
[4] = molecular target: B41 SOSIP.664 trimer (HIV-1 isolate B41 (subtype B))

## SIV trimer SIVcpzMT145 SOSIP.664 (complex)
[1]
  stoichiometry N: 3

## CRF02_AG_250 SOSIP.664 trimer (complex)
[2]
  stoichiometry N: 3

## 327c SOSIP.664 trimer (complex)
[3]
  stoichiometry N: 3

## B41 SOSIP.664 trimer (complex)
[4]
  stoichiometry N: 3
